Source: publication PMC9482650, “Quantitative fragmentomics allow affinity mapping of interactomes” (Nature Communications, 2022)
Numbering of substitutions follows the chain as printed.

Legend:
Experiment in all cases: holdup assay
Parameters in all cases: key: below the threshold = too weak to quantify, mostly under pKd 3.1 to 4
GRIP2_5, Q9C0E4 = biological target: GRIP2_5, Q9C0E4
DLG1_1, Q12959 = biological target: DLG1_1, Q12959
GRIP2_4, Q9C0E4 = biological target: GRIP2_4, Q9C0E4
MAGI2_6, Q86UL8 = biological target: MAGI2_6, Q86UL8
NHERF4_2, Q86UT5 = biological target: NHERF4_2, Q86UT5
APBA2_2, Q99767 = biological target: T1, APBA2_2, Q99767
T1 sequence (Q99767 654-744, limits assumed, looked up): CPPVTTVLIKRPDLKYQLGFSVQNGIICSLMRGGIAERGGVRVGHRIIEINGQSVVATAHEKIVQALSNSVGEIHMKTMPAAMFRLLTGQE

IL16_1, Q14005 = biological target: IL16_1, Q14005
MPP7, Q5T2T1 = biological target: T2, MPP7, Q5T2T1
T2 sequence (Q5T2T1 134-230, limits assumed, looked up): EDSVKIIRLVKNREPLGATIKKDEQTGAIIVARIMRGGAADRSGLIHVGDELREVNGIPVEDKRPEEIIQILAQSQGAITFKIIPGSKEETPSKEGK

SNTG2, Q9NY99 = biological target: T3, SNTG2, Q9NY99
T3 sequence (Q9NY99 68-166, limits assumed, looked up): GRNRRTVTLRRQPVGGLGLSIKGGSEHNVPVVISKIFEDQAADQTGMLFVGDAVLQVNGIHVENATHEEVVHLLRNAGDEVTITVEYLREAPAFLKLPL

MAGI2_3, Q86UL8 = biological target: MAGI2_3, Q86UL8
MPP2, Q14168 = biological target: T4, MPP2, Q14168
T4 sequence (Q14168 180-250, limits assumed, looked up): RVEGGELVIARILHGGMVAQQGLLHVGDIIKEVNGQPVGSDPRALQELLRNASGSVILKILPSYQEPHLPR

ARHGAP21, Q5T5U3 = biological target: T5, ARHGAP21, Q5T5U3
T5 sequence (Q5T5U3 45-169, limits assumed, looked up): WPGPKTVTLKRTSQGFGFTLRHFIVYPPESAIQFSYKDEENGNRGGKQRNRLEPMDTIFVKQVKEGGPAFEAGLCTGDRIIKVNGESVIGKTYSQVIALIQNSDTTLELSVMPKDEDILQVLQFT

NHERF2_2, Q15599 = biological target: NHERF2_2, Q15599
DLG1_3, Q12959 = biological target: DLG1_3, Q12959
MAGI3_2, Q5TCQ9 = biological target: MAGI3_2, Q5TCQ9
HTRA4, P83105 = biological target: T6, HTRA4, P83105
T6 sequence (P83105 378-476, limits assumed, looked up): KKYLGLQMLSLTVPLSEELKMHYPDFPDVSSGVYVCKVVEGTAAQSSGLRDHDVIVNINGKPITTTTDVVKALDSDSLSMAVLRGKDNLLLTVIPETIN

GRIP1_7, Q9Y3R0 = biological target: T7, GRIP1_7, Q9Y3R0
T7 sequence (Q9Y3R0 999-1096, limits assumed, looked up): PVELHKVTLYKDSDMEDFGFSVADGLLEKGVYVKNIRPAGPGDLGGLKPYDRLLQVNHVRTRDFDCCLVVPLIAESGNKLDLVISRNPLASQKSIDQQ

MPP6, Q9NZW5 = biological target: T8, MPP6, Q9NZW5
T8 sequence (Q9NZW5 125-219, limits assumed, looked up): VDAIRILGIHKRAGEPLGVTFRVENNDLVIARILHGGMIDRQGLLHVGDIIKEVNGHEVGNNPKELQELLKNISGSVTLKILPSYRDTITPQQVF

LAP2, Q96RT1 = biological target: LAP2, Q96RT1
MPDZ_5, O75970 = biological target: T9, MPDZ_5, O75970
T9 sequence (O75970 695-796, limits assumed, looked up): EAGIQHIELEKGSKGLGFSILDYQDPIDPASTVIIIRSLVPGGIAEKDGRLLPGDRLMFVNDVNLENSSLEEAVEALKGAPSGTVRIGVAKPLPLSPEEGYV

SCRIB_2, Q14160 = biological target: SCRIB_2, Q14160
LNX1_1, Q8TBB1 = biological target: LNX1_1, Q8TBB1
MPDZ_10, O75970 = biological target: T10, MPDZ_10, O75970
T10 sequence (O75970 1624-1722, limits assumed, looked up): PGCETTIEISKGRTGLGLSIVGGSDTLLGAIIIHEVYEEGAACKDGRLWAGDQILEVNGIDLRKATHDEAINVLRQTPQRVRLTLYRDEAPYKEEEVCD

PCLO, Q9Y6V0 = biological target: T11, PCLO, Q9Y6V0
T11 sequence (Q9Y6V0 4491-4600, limits assumed, looked up): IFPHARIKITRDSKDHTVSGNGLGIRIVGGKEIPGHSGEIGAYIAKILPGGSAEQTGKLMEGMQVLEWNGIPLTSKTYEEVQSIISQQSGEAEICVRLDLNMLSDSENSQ

GRIP2_3, Q9C0E4 = biological target: GRIP2_3, Q9C0E4
APBA1_2, Q02410 = biological target: T12, APBA1_2, Q02410
T12 sequence (Q02410 742-832, limits assumed, looked up): T1 sequence (Q99767 654-744, limits assumed, looked up) with K10R, K15R, A59P, Q65H, A66I, S70A, F84Y, G89A

[1] = plain residues with an end cap or a label only (N-terminal biotin on a linker: ado-ado)
[2] = modified: phospho on S at position -3 from the C-terminal residue

GRIP2_4, Q9C0E4, sequence (Q9C0E4 446-548): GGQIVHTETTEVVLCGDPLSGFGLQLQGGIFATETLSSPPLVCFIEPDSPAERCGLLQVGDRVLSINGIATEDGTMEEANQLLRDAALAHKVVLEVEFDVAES
LNX1_1, Q8TBB1, sequence (Q8TBB1 261-371): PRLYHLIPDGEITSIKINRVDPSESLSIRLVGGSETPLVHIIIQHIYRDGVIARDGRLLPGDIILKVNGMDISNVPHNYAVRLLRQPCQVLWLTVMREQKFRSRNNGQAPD
MAGI2_6, Q86UL8, sequence (Q86UL8 1141-1229): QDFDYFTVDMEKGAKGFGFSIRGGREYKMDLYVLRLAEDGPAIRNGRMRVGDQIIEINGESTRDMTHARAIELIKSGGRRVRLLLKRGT
MAGI3_2, Q5TCQ9, sequence (Q5TCQ9 398-503): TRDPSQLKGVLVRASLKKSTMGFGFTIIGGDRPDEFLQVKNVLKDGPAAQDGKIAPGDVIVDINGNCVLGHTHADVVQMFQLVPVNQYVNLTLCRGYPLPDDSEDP
LAP2, Q96RT1, sequence (Q96RT1 other isoform, or with tags, fused parts or gaps): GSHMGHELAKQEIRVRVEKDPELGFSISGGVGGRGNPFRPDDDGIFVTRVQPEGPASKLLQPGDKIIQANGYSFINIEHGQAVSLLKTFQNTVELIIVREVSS
GRIP2_3, Q9C0E4, sequence (Q9C0E4 238-339): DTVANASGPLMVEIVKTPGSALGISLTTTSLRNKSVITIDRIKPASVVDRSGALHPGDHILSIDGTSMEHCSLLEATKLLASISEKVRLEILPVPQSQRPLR
SCRIB_2, Q14160, sequence (Q14160 857-960): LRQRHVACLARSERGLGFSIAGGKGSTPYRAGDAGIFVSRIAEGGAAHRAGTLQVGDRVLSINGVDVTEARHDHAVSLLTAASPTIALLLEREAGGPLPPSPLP
MAGI2_3, Q86UL8, sequence (Q86UL8 600-682): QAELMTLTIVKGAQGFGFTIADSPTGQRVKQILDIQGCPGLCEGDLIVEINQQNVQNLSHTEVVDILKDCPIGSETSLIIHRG
NHERF4_2, Q86UT5, sequence (Q86UT5 220-308): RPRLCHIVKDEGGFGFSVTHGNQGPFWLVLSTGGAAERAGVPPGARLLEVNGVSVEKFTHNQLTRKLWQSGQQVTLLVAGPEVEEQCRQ
IL16_1, Q14005, sequence (Q14005 210-306): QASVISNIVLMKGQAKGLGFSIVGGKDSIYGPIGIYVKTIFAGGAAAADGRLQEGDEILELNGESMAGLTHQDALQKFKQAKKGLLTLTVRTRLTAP
GRIP2_5, Q9C0E4, sequence (Q9C0E4 544-642): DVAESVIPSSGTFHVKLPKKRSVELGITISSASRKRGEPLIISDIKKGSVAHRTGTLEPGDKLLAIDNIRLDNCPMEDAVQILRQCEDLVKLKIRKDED
NHERF2_2, Q15599, sequence (Q15599 142-238): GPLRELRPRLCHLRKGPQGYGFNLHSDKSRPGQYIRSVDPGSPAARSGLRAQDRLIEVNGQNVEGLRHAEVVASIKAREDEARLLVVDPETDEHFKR

PDGEMMEVLI [AMOTL1, Q8IY63]
pKd (GRIP2_5, Q9C0E4; [1]): below the threshold
pKd (DLG1_1, Q12959; [1]): below the threshold
pKd (GRIP2_4, Q9C0E4; [1]): below the threshold
pKd (MAGI2_6, Q86UL8; [1]): below the threshold
pKd (NHERF4_2, Q86UT5; [1]): below the threshold
pKd (APBA2_2, Q99767; [1]): below the threshold
pKd (IL16_1, Q14005; [1]): below the threshold
pKd (MPP7, Q5T2T1; [1]): 4.24
pKd (SNTG2, Q9NY99; [1]): below the threshold
pKd (MAGI2_3, Q86UL8; [1]): below the threshold
pKd (MPP2, Q14168; [1]): below the threshold
pKd (ARHGAP21, Q5T5U3; [1]): 3.53
pKd (NHERF2_2, Q15599; [1]): below the threshold
pKd (DLG1_3, Q12959; [1]): below the threshold
pKd (MAGI3_2, Q5TCQ9; [1]): below the threshold
pKd (HTRA4, P83105; [1]): 3.75
pKd (GRIP1_7, Q9Y3R0; [1]): below the threshold
pKd (MPP6, Q9NZW5; [1]): below the threshold
pKd (LAP2, Q96RT1; [1]): below the threshold
pKd (MPDZ_5, O75970; [1]): below the threshold
pKd (SCRIB_2, Q14160; [1]): below the threshold
pKd (LNX1_1, Q8TBB1; [1]): below the threshold
pKd (MPDZ_10, O75970; [1]): below the threshold
pKd (PCLO, Q9Y6V0; [1]): below the threshold
pKd (GRIP2_3, Q9C0E4; [1]): below the threshold
pKd (APBA1_2, Q02410; [1]): below the threshold

RRVRKLPSTTL [RPS6KA1_-3P, Q15418]
pKd (GRIP2_5, Q9C0E4; [2]): below the threshold
pKd (DLG1_1, Q12959; [2]): 3.69
pKd (GRIP2_4, Q9C0E4; [2]): below the threshold
pKd (MAGI2_6, Q86UL8; [2]): below the threshold
pKd (NHERF4_2, Q86UT5; [2]): below the threshold
pKd (APBA2_2, Q99767; [2]): below the threshold
pKd (IL16_1, Q14005; [2]): below the threshold
pKd (MPP7, Q5T2T1; [2]): below the threshold
pKd (SNTG2, Q9NY99; [2]): 4.76
pKd (MAGI2_3, Q86UL8; [2]): below the threshold
pKd (MPP2, Q14168; [2]): below the threshold
pKd (ARHGAP21, Q5T5U3; [2]): below the threshold
pKd (NHERF2_2, Q15599; [2]): 3.68
pKd (DLG1_3, Q12959; [2]): below the threshold
pKd (MAGI3_2, Q5TCQ9; [2]): 4.1
pKd (HTRA4, P83105; [2]): 3.72
pKd (GRIP1_7, Q9Y3R0; [2]): 3.68
pKd (MPP6, Q9NZW5; [2]): below the threshold
pKd (LAP2, Q96RT1; [2]): below the threshold
pKd (MPDZ_5, O75970; [2]): below the threshold
pKd (SCRIB_2, Q14160; [2]): below the threshold
pKd (LNX1_1, Q8TBB1; [2]): below the threshold
pKd (MPDZ_10, O75970; [2]): below the threshold
pKd (PCLO, Q9Y6V0; [2]): below the threshold
pKd (GRIP2_3, Q9C0E4; [2]): below the threshold
pKd (APBA1_2, Q02410; [2]): below the threshold

FEEEAEEEVA [TUBB4B, P68371]
pKd (GRIP2_5, Q9C0E4; [1]): below the threshold
pKd (DLG1_1, Q12959; [1]): below the threshold
pKd (GRIP2_4, Q9C0E4; [1]): below the threshold
pKd (MAGI2_6, Q86UL8; [1]): below the threshold
pKd (NHERF4_2, Q86UT5; [1]): below the threshold
pKd (APBA2_2, Q99767; [1]): below the threshold
pKd (IL16_1, Q14005; [1]): below the threshold
pKd (MPP7, Q5T2T1; [1]): 3.59
pKd (SNTG2, Q9NY99; [1]): below the threshold
pKd (MAGI2_3, Q86UL8; [1]): below the threshold
pKd (MPP2, Q14168; [1]): 3.77
pKd (ARHGAP21, Q5T5U3; [1]): below the threshold
pKd (NHERF2_2, Q15599; [1]): below the threshold
pKd (DLG1_3, Q12959; [1]): below the threshold
pKd (MAGI3_2, Q5TCQ9; [1]): below the threshold
pKd (HTRA4, P83105; [1]): below the threshold
pKd (GRIP1_7, Q9Y3R0; [1]): below the threshold
pKd (MPP6, Q9NZW5; [1]): below the threshold
pKd (LAP2, Q96RT1; [1]): below the threshold
pKd (MPDZ_5, O75970; [1]): below the threshold
pKd (SCRIB_2, Q14160; [1]): below the threshold
pKd (LNX1_1, Q8TBB1; [1]): below the threshold
pKd (MPDZ_10, O75970; [1]): below the threshold
pKd (PCLO, Q9Y6V0; [1]): below the threshold
pKd (GRIP2_3, Q9C0E4; [1]): below the threshold
pKd (APBA1_2, Q02410; [1]): below the threshold

VISERNSTTV [C3AR1, Q16581]
pKd (GRIP2_5, Q9C0E4; [1]): below the threshold
pKd (DLG1_1, Q12959; [1]): 4.44
pKd (GRIP2_4, Q9C0E4; [1]): below the threshold
pKd (MAGI2_6, Q86UL8; [1]): 3.49
pKd (NHERF4_2, Q86UT5; [1]): below the threshold
pKd (APBA2_2, Q99767; [1]): below the threshold
pKd (IL16_1, Q14005; [1]): below the threshold
pKd (MPP7, Q5T2T1; [1]): below the threshold
pKd (SNTG2, Q9NY99; [1]): 3.61
pKd (MAGI2_3, Q86UL8; [1]): below the threshold
pKd (MPP2, Q14168; [1]): below the threshold
pKd (ARHGAP21, Q5T5U3; [1]): 3.96
pKd (NHERF2_2, Q15599; [1]): 3.82
pKd (DLG1_3, Q12959; [1]): below the threshold
pKd (MAGI3_2, Q5TCQ9; [1]): 4.83
pKd (HTRA4, P83105; [1]): 4.11
pKd (GRIP1_7, Q9Y3R0; [1]): below the threshold
pKd (MPP6, Q9NZW5; [1]): below the threshold
pKd (LAP2, Q96RT1; [1]): below the threshold
pKd (MPDZ_5, O75970; [1]): below the threshold
pKd (SCRIB_2, Q14160; [1]): 3.71
pKd (LNX1_1, Q8TBB1; [1]): 3.61
pKd (MPDZ_10, O75970; [1]): below the threshold
pKd (PCLO, Q9Y6V0; [1]): below the threshold
pKd (GRIP2_3, Q9C0E4; [1]): below the threshold
pKd (APBA1_2, Q02410; [1]): below the threshold
